Key:
[1] = target: T1, BTN3A1 overexpressed on BT474 cells (BT474-BTN3A1) (UniProt O00481 30-513, limits assumed); test: flow cytometric adhesion assay, human LSECtin detected with antibody CCB059
T1 construct: whole, on cells; Expressed from pIRES2-EGFP-BTN3A1 in BT474 cells
From the text: (§1) 3. Each cell in the step 2 was obtained by digestion and collection, and then was adhered to human LSECtin protein (R&D, 2947-CL) and mouse LSECtin-Fc protein, respectively, and the human LSECtin adhesion rate was detected by mouse anti-human LSECtin antibody CCB059. […] mouse LSECtin adhesion rate was detected by anti-IgG (Biolegend, 405307), and the adhesion ratio was detected by flow cytometry. Details of adhesion assay have been published in the method of “Tang L, Yang J, Tang X, et al. The DC-SIGN family member LSECtin is a novel ligand of CD44 on activated T cells[J], European journal of immunology. 2010, 40(4): 1185-1191”.

[2] = target: T1, BTN3A1 overexpressed on BT474 cells …; test: flow cytometric adhesion assay, murine LSECtin-Fc detected with anti-IgG
From the text: as §1

[3] = target: BTN3A2 overexpressed on BT474 cells (BT474-BTN3A2) (Homo sapiens (Human), UniProt P78410 30-334); test: as above
BTN3A2 overexpressed on BT474 cells (BT474-BTN3A2), sequence (P78410 30-334 limits assumed): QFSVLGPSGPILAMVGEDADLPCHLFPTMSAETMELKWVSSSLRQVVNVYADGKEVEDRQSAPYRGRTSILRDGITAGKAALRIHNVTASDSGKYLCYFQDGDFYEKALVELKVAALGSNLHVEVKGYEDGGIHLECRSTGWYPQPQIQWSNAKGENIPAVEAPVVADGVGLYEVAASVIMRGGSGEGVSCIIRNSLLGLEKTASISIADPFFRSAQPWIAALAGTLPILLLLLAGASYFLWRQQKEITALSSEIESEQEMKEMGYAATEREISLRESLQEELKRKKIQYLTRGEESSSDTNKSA
From the text: as §1

T1 sequence (O00481 30-513 limits assumed): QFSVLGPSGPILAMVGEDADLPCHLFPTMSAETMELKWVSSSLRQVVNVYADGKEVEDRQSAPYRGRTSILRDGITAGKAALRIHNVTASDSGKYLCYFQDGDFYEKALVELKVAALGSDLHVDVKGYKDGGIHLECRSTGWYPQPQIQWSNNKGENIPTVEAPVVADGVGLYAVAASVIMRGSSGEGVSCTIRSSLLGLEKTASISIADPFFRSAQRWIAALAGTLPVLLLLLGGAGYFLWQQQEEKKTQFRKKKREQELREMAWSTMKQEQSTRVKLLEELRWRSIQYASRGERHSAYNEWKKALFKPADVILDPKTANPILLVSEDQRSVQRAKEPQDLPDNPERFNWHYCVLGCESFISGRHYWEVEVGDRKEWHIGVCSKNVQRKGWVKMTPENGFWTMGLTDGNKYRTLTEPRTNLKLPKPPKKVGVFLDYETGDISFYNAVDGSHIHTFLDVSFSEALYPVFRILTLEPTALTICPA

binding result [1]	binding result [2]	binding result [3]	Binder
no binding	–	–	human LSECtin protein (R&D, 2947-CL) (ligand, Bought recombinant protein (R&D 2947-CL); also called human recombinant protein LSECtin; Liver Sinusoidal Endothelial Cells lectin) SKASTERAALLDGHDLLRTNASKQTAALGALKEEVGDCHSCCSGTQAQLQTTRAELGEAQAKLMEQESALRELRERVTQGLAEAGRGREDVRTELFRALEAVRLQNNSCEPCPTSWLSFEGSCYFFSVPKTTWAAAQDHCADASAHLVIVGGLDEQGFLTRNTRGRGYWLGLRAVRHLGKVQGYQWVDGVSLSFSHWNQGEPNDAWGRENCVMMLHTGLWNDAPCDSEKDGWICEKRHNC
–	no binding	no binding	mouse LSECtin-Fc protein (Fc fusion, UniProt Q8BNX1 52-294, looked up, also called murine LSECtin-Fc; murine LSECtin; not shown: Fc part) LLSSASSKLRVLLSHQDLLRTNASEQKMTLSSLKDDIGACRNCCSVTKAQLQTTLAEFKDIQAKLMEQESILKELQERVTQDLAKASRDRENIRSELFQALEAVKRQNSSCEQCPPSWLPFQGSCYYFSETQATWDTAQSYCGGQGAHLVIVRGLNEQGFLSQHTRGRGYWLGLRAVRHLNKIQGYRWVDGASLNFSHWNSGEPNDSRGHEDCIMMLHSGLWNDAPCTNERDGWICEKRSSCY

— patent US20210163598A1 (BEIJING PROTEOME RESEARCH CENTER, published 2021)
